The assay addresses T1, CD6 (as used in surface plasmon resonance) (human, UniProt P30203 18-402, limits assumed).
T1 construct: also called human CD6
T1 sequence (looked up): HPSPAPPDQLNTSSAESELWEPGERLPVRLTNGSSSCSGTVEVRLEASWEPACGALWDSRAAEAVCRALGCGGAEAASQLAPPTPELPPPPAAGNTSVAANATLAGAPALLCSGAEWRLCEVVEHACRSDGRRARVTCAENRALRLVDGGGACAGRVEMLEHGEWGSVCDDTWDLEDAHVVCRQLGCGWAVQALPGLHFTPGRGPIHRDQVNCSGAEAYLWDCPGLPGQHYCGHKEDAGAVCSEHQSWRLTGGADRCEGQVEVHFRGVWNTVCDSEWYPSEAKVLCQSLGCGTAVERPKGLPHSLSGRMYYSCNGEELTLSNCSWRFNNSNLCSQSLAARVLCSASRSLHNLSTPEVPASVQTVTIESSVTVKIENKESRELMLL
Put plainly: surface plasmon resonance. A general note: In SPR one partner is held on a chip, and binding of the other changes the refractive index at the surface.

B1: mouse anti-human CD6 IgG (UMCD6) (antibody, V domains shown)
VH: QVQLKESGPGLVAPSQSLSITCTVSGFSLSRYSVHWVRQPPGKGLEWLGLIWGGGFTDYNSALKSRLSITKDNSKSQVFLKMNSLQTDDTAMYYCAREGVAYWGQGTLVSVSA
VL: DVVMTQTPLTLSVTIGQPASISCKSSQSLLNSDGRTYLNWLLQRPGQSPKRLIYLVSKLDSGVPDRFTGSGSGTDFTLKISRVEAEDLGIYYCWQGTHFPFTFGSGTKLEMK
notes: Mouse IgG; also called parent anti-CD6 mAb; parental mouse anti-CD6 IgG
The term Kd denotes the free concentration of one partner at which half of the binding sites on the other are occupied at equilibrium, for simple one-to-one binding. In turn, B1 came in with a Kd of 0.01 nM.
